The target of assay [1] is HA307-319 peptide ([…]), alone. Put plainly: ELISA, immobilized peptide.
The target in assay [2] is DR4/HA307-319 complex presented on cells (human, UniProt P01903 26-254; P01911 30-266). Put plainly: flow cytometry on peptide-loaded Preiss cells.

B1: G1H12 Fab (Anti HLA-DR4/GAD555-567 Fab) (Fab, V domains shown)
VH: QVQLVQSGAEVKKPGASVKVSCKASGYTFTSYGISWVRQAPGQGLEWMGGIIPIFGTANYAQKFQGRVTITADKSTSTAYMELSSLRSEDTAVYYCARDPQSYYYDSSGFDYWGQGTLVTVSS
VL: QSVLTQPPSVSAAPGQKVTISCSGSSSNIGNNYVSWYQQLPGTAPKLLIYDNNKRPSGIPDRFSGSKSGTSATLGITGLQTGDEADYYCGTWDSSLSVWVFGGGTKLTVLG
As to B1, the binding result in assay [1] is recorded as “no binding (tested: 5 µg/ml soluble purified Fab)”; in assay [2], “no binding (tested: 1-5 µg of specific Fab per 10^6 cells)”.

B2: G3H8 Fab (Anti HLA-DR4/GAD555-567 Fab) (Fab, V domains shown)
VH: QVQLVQSGAEVKKPGASVKVSCKASGYTFTTYGISWVRQAPGQGLEWMGWISAYNGHTNYAQMLQGRVTMTTDTSTSTAYMELRGLRSDDTAVYYCAREAYASYGSGSYWTDYWGQGTLVTVSS
VL: ETTLTQSPATLSVSPGERVTLSCRASQSVGSNLAWYQQKFGQAPRLLIYDASTRATGIPARFSGSGSGTEFTLTISRLEPEDFAVYYCHQYGSSPRTFGQGTKVDIKR
notes: also called Fab G3H8; G3H8 TCRL Fab
B2: the binding result in assay [1] is “no binding (tested: 5 µg/ml soluble purified Fab)”; in assay [2], “no binding (tested: 1-5 µg of specific Fab per 10^6 cells)”.

The values are drawn from US20130189284A1 (TECHNION RESEARCH AND DEVELOPMENT FOUNDATION, published 2013).
